Measurements reported in patent US20030092609A1.
Each block holds one molecule with its values, some of them ahead of it. [ ]: non-standard residue; d: D form. Hyp = O=C(O)[C@@H]1C[C@@H](O)CN1

Columns and labels:
[1] = biological target: AAP receptors in CHO cells; experiment: in situ displacement of [125I]AAP10 on intact CHO cells
[2] = biological target: [125I]AAP10 binding site in murine heart tissue preparations; experiment: displacement of 0.8 nM [125I]AAP10 from murine heart membranes
[3] = biological target: AAP receptors in CHO cells; experiment: cell-based or functional assay
[4] = biological target: [125I]AAP10 binding site in murine heart tissue preparations; experiment: displacement of 0.8 nM [125I]AAP10 from murine heart filtrate

Molecule: Ac-D-Tyr(3,5-di-I)-D-Pro-D-Hyp-Gly-D-Ala-Gly-NH2 (Compound 24) (peptide)
IC50 [1]: 65 nM

B1: H-Gly-Ala-Gly-Hyp-Pro-Tyr-NH2 (AAP10) (peptide)
chain: H-GAG[Hyp]PY-NH2
Inhibition of forskoline stimulated cAMP formation in CHO cells, EC50 [3]: 11 nM
IC50 [4]: 1.2 nM
IC50 [1]: 130 nM

B3: H-Gly-Pro-Hyp-Gly-Ala-Gly-OH (AAP, antiarrhythmic peptide) (peptide)
chain: H-GP[Hyp]GAG-OH
SMILES: C[C@H](NC(=O)CNC(=O)[C@@H]1C[C@@H](O)CN1C(=O)[C@@H]1CCCN1C(=O)CN)C(=O)NCC(=O)O
Inhibition of forskoline stimulated cAMP formation in CHO cells, EC50 [3]: 53 nM
IC50 [4]: 1.2 nM
IC50 [1]: 0.8 nM

The remaining molecules from weak to strong by IC50 [1], led by results:

IC50 [2]: 1.2 nM
Inhibition of forskoline stimulated cAMP formation in CHO cells, EC50 [3]: 6.2 nM
IC50 [4]: 3.6 nM
IC50 [1]: 0.5 nM
Molecule: Ac-D-Tyr-D-Pro-D-4Hyp-Gly-D-Ala-Gly-NH2 (Compound 2) (peptide)

IC50 [1]: 0.5 nM
B2: ASAL(mono-iodo)-Pro-Hyp-Gly-Ala-Gly-NH2 (Compound 32) (peptide)
chain: {ASAL(3-I)}-P[Hyp]GAG-NH2
